Measurements taken from PMC4434759.

Target: PsIAA4 PB1^AM3 (D151A/D153A/D155A) (pea (Pisum sativum))
Experiment: ITC

PsIAA4 PB1^BM3 (K96A/R106A/K107A) (domain or fragment)
Kd: 6.4 µM | stoichiometry N: 1
